In assay [1] the target is human B7-H3 expressed on the surface of human cancer cell lines (human) (UniProt Q5ZPR3). In words: FACS on HT29 cells, 10 ug/ml.
Assay [2] shares this target. In words: FACS on Hela cells, 10 ug/ml.
The target is the same in assay [3]. Nature of the assay: FACS on 786-0 cells, 10 ug/ml.
For assay [4] the target is unchanged. Nature of the assay: FACS on A-498 cells, 10 ug/ml.
Assay [5] shares this target. Nature of the assay: FACS on A2780 cells, 10 ug/ml.
Assay [6] shares this target. Nature of the assay: FACS on DLD-1 cells, 10 ug/ml.
Assay [7] has the same target. In words: FACS on MCF-7 cells, 10 ug/ml.
Assay [8] shares this target. In words: FACS on Calu-6 cells, 10 ug/ml.
The target is the same in assay [9]. Nature of the assay: FACS on HCT116 cells, 10 ug/ml.
The target is the same in assay [10]. In words: FACS on JeKo-1 cells, 10 ug/ml.
Assay [11] shares this target. In words: FACS on Panc-1 cells, 10 ug/ml.
The target is the same in assay [12]. Nature of the assay: FACS on SKOV-3 cells, 10 ug/ml.
For assay [13] the target is unchanged. In words: FACS on HCC1187 cells, 10 ug/ml.
The target is the same in assay [14]. Nature of the assay: FACS on HCC1954 cells, 10 ug/ml.
Assay [15] shares this target. In words: FACS on NCI-N87 cells, 10 ug/ml.
Assay [16] has the same target. Nature of the assay: FACS on OVCAR-3 cells, 10 ug/ml.
The target is the same in assay [17]. In words: FACS on MDA-MB-231 cells, 10 ug/ml.
Assay [18] has the same target. Nature of the assay: FACS on MDA-MB-468 cells, 10 ug/ml.

Chain of human B7-H3 expressed on the surface of human cancer cell lines (human) (Q5ZPR3 29-534): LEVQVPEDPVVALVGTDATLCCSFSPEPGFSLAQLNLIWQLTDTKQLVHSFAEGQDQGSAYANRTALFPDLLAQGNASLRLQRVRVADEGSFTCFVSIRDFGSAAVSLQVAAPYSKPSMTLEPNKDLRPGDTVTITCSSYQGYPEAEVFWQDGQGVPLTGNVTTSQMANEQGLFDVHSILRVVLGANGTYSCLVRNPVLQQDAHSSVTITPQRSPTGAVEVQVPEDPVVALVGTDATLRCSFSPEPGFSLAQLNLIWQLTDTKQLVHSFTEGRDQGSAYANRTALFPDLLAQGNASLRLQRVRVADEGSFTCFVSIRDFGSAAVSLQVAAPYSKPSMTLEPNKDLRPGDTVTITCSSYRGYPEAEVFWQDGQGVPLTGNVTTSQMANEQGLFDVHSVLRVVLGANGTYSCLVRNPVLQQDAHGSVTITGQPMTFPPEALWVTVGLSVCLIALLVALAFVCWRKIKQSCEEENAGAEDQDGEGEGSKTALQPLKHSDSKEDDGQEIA

B1: 84D (comparison anti-B7-H3 antibody, Enoblituzumab variable regions) (antibody, part only; not given: constant regions, V domains shown, not shown: another chain or arm of the molecule)
VH: EVQLVESGGGLVQPGGSLRLSCAASGFTFSSFGMHWVRQAPGKGLEWVAYISSDSSAIYYADTVKGRFTISRDNAKNSLYLQMNSLRDEDTAVYYCGRGRENIYYGSRLDYWGQGTTVTVSS
VL: DIQLTQSPSFLSASVGDRVTITCKASQNVDTNVAWYQQKPGKAPKALIYSASYRYSGVPSRFSGSGSGTDFTLTISSLQPEDFATYYCQQYNNYPFTFGQGTKLEIK
Regarding B1, the MFI Ratio in [1] is 8.9; in [2], 23.5; in assay [3], 20; in assay [4], 24; in assay [5], 13.1; in assay [6] it was 10.7. The MFI Ratio in assay [7] was determined as 78; in assay [8] it was 23.2; in assay [9], 5.9; in assay [10] it was 2.9; in assay [11], 9; in assay [12], 11.9. Further, the MFI Ratio in [13] was found to be 14.9; in assay [14] it was 14; in [15], 12.8; in [16], 13.7; in assay [17] it was 5.4; in [18], 8.6.

The record behind these values is US20230192861A1.
